“Also recorded” adds a separate entry of the source.

These results are taken from patent US11180733B2, “Method of generating mesenchymal stem cells and uses thereof” (AGENCY FOR SCIENCE, TECHNOLOGY AND RESEARCH, priority 2016, dated 2021).

For test [1], the system named is human induced pluripotent stem cells (iPSCs). Nature of the test: Differentiation of iPSCs towards primitive streak (PS)-like mesendoderm (morphology, qPCR). It is filed as cell-based. The procedure:
BJC1-iPSCs were differentiated towards primitive streak-like mesendoderm cells for 2 days with indicated combination of CHIR99021 (3 μM) and FGF (20 ng/ml) in conjunction with the indicated signaling perturbations, qPCR was performed at day 2. […] FIG. 9C represents data from FACS analysis showing more than 97% cells at day 2 were positive for primitive streak genes MIXL1, Brachyury (T) and GSC. FIG. 9D represents the immunofluoresence results at day 2 showing the expression of MIXL1, Brachyury (T) and GSC after 2 day of primitive streak induction.
iPSCs from MRCS or BJ cell lines, or hESCs were differentiated into primitive streak-like mesendoderm cells and primitive streak mesendoderm cells respectively. Feeder-free iPSCs were maintained in mTeSR (Stem Cell Technologies) before differentiation. To differentiate iPSCs, iPSCs were digested with 1 mg/ml collagenase IV for 5-10 min at 37° C. into small clumps and placed on a fibronectin (FN, 10 μg/ml)-coated surface in medium containing activin A (25 ng/ml) and CHIR99021 (3 μM) for 1 day in a basal medium (DMEM: F12, 1% ITS, 2% B27, 2 mM L-Glutamine, 90 uM ß-mercaptoethanol), followed by Activin A (25 ng/ml), CHIR99021 (3 μM) and FGF (20 ng/ml) for subsequent 24 hours to differentiate toward primitive streak (PS)-like mesendoderm.
Quantitative real-time PCR was performed with Taqman expression assay using ABI PRISM 7900HT sequence Detection System (Applied Biosystems). Briefly, […] of total RNA was converted to cDNA using high capacity cDNA archive kit in 30 μl and then diluted to 500 μl. Quantitative real-time PCR was done as follows: initial denaturation for 2 min at 50° C., 10 min at 95° C., following 40 cycles of PCR (95° C. for 15 s, 60° C. for 1 min) by using 5 μl of 2× Master mix, 0.5 μl of probe and 4.5 μl of cDNA. All probes were designed with a 5′ fluoregenic 6-carboxylfluorescein, and a 3′ quencher, tetramethyl-6-carboxyrhodamine. The expression of human GAPDH was used to normalize gene expression levels.

A further test has as its system BJC1-iPSCs. In words: Differentiation of PS-like mesendoderm towards lateral plate-like mesoderm (qPCR, cell number at day 10). It is filed as cell-based, human. The procedure: BJC1-iPSCs were differentiated towards mesoderm after 8 days of differentiation with indicated combination of FGF (20 ng/ml), Rock inhibitor Y27632 (5 uM) and Follistatin (100 ng/ml) in conjunction with the indicated signaling perturbations, qPCR was performed at day 10. […] BJC1-iPSCs were differentiated towards mesoderm after 8 days of differentiation with indicated combination of FGF (20 ng/ml), BMP4 (40 ng/ml), and Rock inhibitor Y27632 (5 uM) in conjunction with the indicated signaling perturbations, qPCR was performed at day 10. […] Mesoderm differentiation was induced with FGF (20 ng/ml), BMP4 (40 ng/ml), rock inhibitor Y27632 (5 μM, only used at the time of passage and remove the next day) and follistatin (100 ng/ml) for 8 days. Quantitative real-time PCR was performed with Taqman expression assay using ABI PRISM 7900HT sequence Detection System (Applied Biosystems). Briefly, […] of total RNA was converted to cDNA using high capacity cDNA archive kit in 30 μl and then diluted to 500 μl. Quantitative real-time PCR was done as follows: initial denaturation for 2 min at 50° C., 10 min at 95° C., following 40 cycles of PCR (95° C. for 15 s, 60° C. for 1 min) by using 5 μl of 2× Master mix, 0.5 μl of probe and 4.5 μl of cDNA. All probes were designed with a 5′ fluoregenic 6-carboxylfluorescein, and a 3′ quencher, tetramethyl-6-carboxyrhodamine. The expression of human GAPDH was used to normalize gene expression levels.
(In qPCR the cycle at which signal appears reflects the starting amount.)

[2] abbreviates: compared with wnt3a (ACF vs AWF).
The mark [3] stands for this setting: with FGF 20 ng/ml, BMP4 40 ng/ml, Y27632 5 uM, qPCR at day 10.

With `Cc1cnc(-c2cnc(NCCNc3ccc(C#N)cn3)nc2-c2ccc(Cl)cc2Cl)[nH]1` [CHIR99021, 6-[2-[[4-(2,4-dichlorophenyl)-5-(5-methyl-1H-imidazol-2-yl)pyrimidin-2-yl]amino]ethylamino]pyridine-3-carbonitrile, reference compound], in test [1] (setting [2]), the “adherence of iPSCs to the dish” value is “promoted the adherence of iPSCs to the dish” and the “differentiation toward PS-like mesendoderm” value is reported as “promoted differentiation toward PS-like mesendoderm”.

As to `C[C@@H](N)[C@H]1CC[C@H](C(=O)Nc2ccncc2)CC1.Cl.Cl` [Y27632, (R)-(+)-trans-4-(1-Aminoethyl)-N-(4-Pyridyl)cyclohexanecarboxamide dihydrochloride, reference compound], the “expression of lateral plate mesoderm genes Hand1 and FOXF1” value in the test on BJC1-iPSCs (compared to NT4, dihydrochloride) was “increased the expression of lateral plate mesoderm genes Hand1 and FOXF1; also recorded: significantly increases the expression of lateral plate mesoderm genes”. Further, the “increase in cell number” value with BJC1-iPSCs (compared with neurotrophi-4 (NT), day 10) is on record as 3.53±1.56 fold.

Consider “FGF: fibroblast growth factor; in one specific example FGF2”, for which the “differentiation toward PS-like mesendoderm” value in test [1] (addition of FGF at day 2) is reported as “did not further enhance differentiation toward PS-like mesendoderm”. For the same molecule, the expression of mesoderm result in test [1] (in the presence of FGF at day 2) was “expression of mesoderm increased”.

B1: follistatin: protein encoded by the FST gene (protein, UniProt P19883 30-344, looked up)
Follistatin: GNCWLRQAKNGRCQVLYKTELSKEECCSTGRLSTSWTEEDVNDNTLFKWMIFNGGAPNCIPCKETCENVDCGPGKKCRMNKKNKPRCVCAPDCSNITWKGPVCGLDGKTYRNECALLKARCKEQPELEVQYQGRCKKTCRDVFCPGSSTCVVDQTNNAYCVTCNRICPEPASSEQYLCGNDGVTYSSACHLRKATCLLGRSIGLAYEGKCIKAKSCEDIQCTGGKKCLWDFKVGRGRCSLCDELCPDSKSDEPVCASDNATYASECAMKEAACSSGVLLEVKHSGSCNSISEDTEEEEEDEDQDYSFPISSILEW
For B1, in the test on BJC1-iPSCs (presence compared to absence of Follistatin, qPCR at day 10), the “expression of lateral plate mesoderm genes Hand1 and FOXF1 and mesenchymal stem cell genes CD44 and CD105” value is given as “significantly increases the expression”. Moreover, in the test on BJC1-iPSCs (setting [3]), the “endodermal differentiation Sox17 and FOXA1” value was “inhibited endodermal differentiation”; the mesodermal differentiation entry is “promoting mesodermal differentiation”.

B2: BMP4: bone morphogenetic protein (protein, UniProt P12644 293-408, looked up)
Bone morphogenetic protein 4: SPKHHSQRARKKNKNCRRHSLYVDFSDVGWNDWIVAPPGYQAFYCHGDCPFPLADHLNSTNHAIVQTLVNSVNSSIPKACCVPTELSAISMLYLDEYDKVVLKNYQEMVVEGCGCR
On to B2, for which the “BMP4 concentration that led to the highest expression of lateral plate mesoderm markers” value in the test on BJC1-iPSCs (with FGF 20 ng/ml, Y27632 5 uM, Follistatin 100 ng/ml, qPCR at day 10) amounted to 40 ng/mL.

B3: noggin: antagonism of BMP signaling (protein, UniProt Q13253 28-232, looked up)
Noggin: QHYLHIRPAPSDNLPLVDLIEHPDPIFDPKEKDLNETLLRSLLGGHYDPGFMATSPPEDRPGGGGGAAGGAEDLAELDQLLRQRPSGAMPSEIKGLEFSEGLAQGKKQRLSKKLRRKLQMWLWSQTFCPVLYAWNDLGSRFWPRYVKVGSCFSKRSCSVPEGMVCKPSKSVHLTVLRWRCQRRGGQRCGWIPIQYPIISECKCSC
B3: in the test on BJC1-iPSCs (in the absence of BMP4 or in the presence of noggin, qPCR at day 10), the “expression of ectodermal gene Sox1” value was 38.65 fold.

B4: activin A: Activin A formed by two activin βA subunits, member of the TGF-β superfamily (protein, UniProt P08476 311-426, looked up)
Inhibin beta A chain: GLECDGKVNICCKKQFFVSFKDIGWNDWIIAPSGYHANYCEGECPSHIAGTSGSSLSFHSTVINHYRMRGHSPFANLKSCCVPTKLRPMSMLYYDDGQNIIKKDIQNMIVEECGCS
modifications: Inhibin beta A chain
On to B4, for which, in test [1] (activin 25-100 ng/ml with CHIR99021 3 μM and FGF 20 ng/ml, qPCR at day 2), the “differentiation towards PS-like mesendoderm expressing T, MIXL1 and GSC” value is “enhanced differentiation towards PS-like mesendoderm”. Also, in test [1] (activin 25-100 ng/ml, qPCR at day 2), the “expression of endodermal marker Sox17” value is “increased with the dose”. For the same molecule, in test [1] (qPCR at day 2), the “activin A concentration at which the ratio of increased MIXL1 or T to Sox17 was the highest” value came to 25 ng/mL.
